Results published in patent CN111303278A.

B1: CB030.1 (antibody, V domains shown)
VH: QVQLVQSGAEMKRPGSSVKVSCKASGGTFSTFAINWVRQAPGQGFEWMGGVIPGFDSANYAQKFQGRLTMSADESTSTVYMELSSLRSDDTAVYYCAGNSGYCSGDSCAPNWGPGTLVTVSS
VL: DIVMTQSPLSLPVTPGEPASISCRSSQSLVHSNGYSYLDWYLQKPGQSPQLLIYLGSNRPSGVPDRFSGSGSGTDFTLKISRVEAEDVGVYFCMQNLQTPTFGGGTKVEIK
B2: CB017.5L (antibody, V domains shown)
VH: QVQLVESGGGVVQPGRSLRLSCSASGFTFSVYAMHWVRQAPGQGLEWVAIIWYDGSNKYYADSVKGRFTISRDNSKETLYLQMNSLRVEDTAVYYCARDPIVGHTRDGLDVWGQGTTVTVSS
VL: SYELTQPPSVSVSPGQTARVTCSGDAMAEQYTYWYQQKPGQAPVLIIFKDTERPSGIPERFSGSSSGTTVTLTISGVQTEDEADYYCQSTDSSGTSWVFGGGTKLTVL
B3: CR9505 (antibody, from another filing, V domains shown)
VH: EVQLQQSGPELVKPGTSVKISCKASGYSFTGFTMNWVKQSHGKNLEWFGLINPFNGNTGYNQKFKGKATLTVDKSSSTAFMELLSLTSEDSAVYYCARSGKSYDYEAWFTYWGQGTLVTVSA
VL: DIVMTQTTLSLPVSLGNQASISCRSSQTIVHTNGNTYLEWYLQKPGQSPKLLIYKVSNRFSGVPDRFSGSGSGTDFILNISRVEAEDLGVYYCFQGSHVPFTFGSGTKLEIKR

Legend:
[1] = biological target: RSV G中央保守域(CCD)生物素结合的肽 SYM-1706 (RSV); assay: ELISA, biotinylated peptide on avidin plate, mAb titrated
长RSV G肽 (表15) = assay: as above
[2] = biological target: RSV株A/长(ATCC目录号VR-26)的G蛋白 (RSV A/长) (UniProt P20895); assay: cell-based or functional assay

Row | Binder | IC50 [1] | IC50 (长RSV G肽 (表15)) | IC50 (空斑减少分析, 50%中和空斑形成) [2]
1 | B1 | 0.02 µg/mL | 0.02 µg/mL | 
2 | B2 | 0.02 µg/mL | 0.02 µg/mL | 
3 | B3 |  |  | 0.018 µg/mL
